Assay results taken from PMC3991615, “The N-Terminal Domain of the Repressor of Staphylococcus aureus Phage Φ11 Possesses an Unusual Dimerization Ability and DNA Binding Affinity”.
One block for each molecule: values may come before it.

What was measured:
[1] = biological target: Φ11 CI with a C-terminal histidine tag (Staphylococcus aureus phage Φ11); experiment: cross-linking; glutaraldehyde (0.1%), 1-5 µM protein, products analysed by 13.5% SDS-PAGE
[2] = biological target: Φ11 CI with a C-terminal histidine tag (Staphylococcus aureus phage Φ11); experiment: SEC; analytical gel filtration, 10 µM protein in buffer C (10 mM Tris-HCl pH 8.0, 200 mM NaCl, 1 mM EDTA, 5% glycerol) with 10 mM β-mercaptoethanol; calibrated with conalbumin, ovalbumin, carbonic anhydrase, cytochrome C
[3] = biological target: T1, rCI (phage phi11 CI lysogenic repressor) (Staphylococcus aureus phage phi11) (UniProt Q8SDX2); experiment: EMSA; details: EMSA with ~0.1 nM 32P-DNA, 20 min on ice (0°C) unless 42°C; RNAP assay and protein storage in buffer C (10 mM Tris-HCl pH 8.0, 200 mM NaCl, 1 mM EDTA, 5% …)
T1 sequence: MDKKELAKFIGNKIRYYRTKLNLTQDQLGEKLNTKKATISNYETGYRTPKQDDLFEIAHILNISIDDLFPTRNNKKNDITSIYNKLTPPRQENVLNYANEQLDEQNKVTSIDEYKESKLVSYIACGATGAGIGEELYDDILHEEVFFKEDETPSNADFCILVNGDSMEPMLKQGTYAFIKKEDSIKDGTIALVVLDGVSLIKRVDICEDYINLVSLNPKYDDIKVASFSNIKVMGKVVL

[4] = biological target: T2, rNTD (N-terminal domain of phage phi11 CI repressor) (Staphylococcus aureus phage phi11) (UniProt Q8SDX2); experiment: EMSA; details: EMSA with ~0.1 nM 32P-DNA, 20 min on ice (0°C) unless 42°C; RNAP assay and protein storage in buffer C (10 mM Tris-HCl pH 8.0, 200 mM NaCl, 1 mM EDTA, 5% …)
T2 sequence: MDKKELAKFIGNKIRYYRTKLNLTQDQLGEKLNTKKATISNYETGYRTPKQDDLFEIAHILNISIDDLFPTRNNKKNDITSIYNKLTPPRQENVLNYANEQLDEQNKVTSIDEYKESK

[5] = biological target: recombinant N-terminal domain (NTD) of the Φ11 lysogenic repressor CI (Staphylococcus aureus phage Φ11); experiment: cross-linking; glutaraldehyde (0.1%), 1-5 µM protein, products analysed by 13.5% SDS-PAGE
[6] = biological target: recombinant N-terminal domain (NTD) of the Φ11 lysogenic repressor CI (Staphylococcus aureus phage Φ11); experiment: SEC; analytical gel filtration, 10 µM protein in buffer C (10 mM Tris-HCl pH 8.0, 200 mM NaCl, 1 mM EDTA, 5% glycerol) with 10 mM β-mercaptoethanol; calibrated with conalbumin, ovalbumin, carbonic anhydrase, cytochrome C
[7] = biological target: T2, rNTD (N-terminal domain of phage phi11 CI repressor) (Staphylococcus aureus phage phi11); experiment: DMS footprinting; details: EMSA with ~0.1 nM 32P-DNA, 20 min on ice (0°C) unless 42°C; RNAP assay and protein storage in buffer C (10 mM Tris-HCl pH 8.0, 200 mM NaCl, 1 mM EDTA, 5% …)
[8] = biological target: T3, rNTD (N-terminal domain of phage phi11 CI repressor) (Staphylococcus aureus phage phi11, UniProt Q8SDX2 1-118); experiment: EMSA; 0°C (on ice); EMSA with ~0.1 nM 32P-DNA, 20 min on ice (0°C) unless 42°C; RNAP assay and protein storage in buffer C (10 mM Tris-HCl pH 8.0, 200 mM NaCl, 1 mM EDTA, 5% glycerol); standard EMSA buffer not printed (per refs 7, 8); native PAGE 6% or 10%; details: protein: recombinant, tags: C-terminal His6 (8 additional residues), chain copies: 2, label: 32P
T3 sequence: T2 sequence

[9] = biological target: T4, rCI (phage phi11 CI lysogenic repressor) (Staphylococcus aureus phage phi11, UniProt Q8SDX2 1-239); experiment: as above; details: protein: recombinant; tags: C-terminal His tag; chain copies: 2; label: 32P; 3' overhang 1 nt (both ends)
T4 sequence: T1 sequence

- stoichiometry N [1]: 2
- stoichiometry N [2]: 2
Molecule: Φ11 CI with a C-terminal histidine tag (natural protein)

Molecule: ATTCAACAAAAAAATACACGAAAAGCAAACTTTTATGTTGACTCAAGTACACGTATCGTGTATAGTAGGTTTTGTAAGCGGGAGGTGACAACATGCAATGGAATTTAATAAAGTTGAGAAAAGAAAGAAAGTGTACTCAAGAAGATTTAGGATCC (double strand) [O1O2]
- binding [3]: binds
- binding [4]: binds

- stoichiometry N [5]: 2
- stoichiometry N [6]: 2
Molecule: recombinant N-terminal domain (NTD) of the Φ11 lysogenic repressor CI (domain or fragment)

Molecule: GGATCCTAAATCTTCTTGAGTACACTTTCTTTCTTTTCTCAACTTTATTAAATTCCATTGCATGTTGTCACCTCCCGCTTACAAAACCTACTATACACGATACGTGTACTTGAGTCAACATAAAAGTTTGCTTTTCGTGTATTTTTTTGTTGAATACCAAAAATAATTGGGTTATACTATAGGTAAATTTAAGGAGGTAAGAAAATGGATAAAAAAGAATTAGCGAAATTTATAGGCAATAAAATCAGATACTATAGAACCAAGAATTC (double strand) [O]
- binding [4]: binds
- binding [7]: binds

Molecule: CTCGAGCATTTTAACTACGTTTGCAGCTTGCTCGCCACGGTCGCCTTCAACGATGTCGAATTCAACTTTTTGGCCTTCTTCTAATGATTTGTATCCATCTTCAGCGATTGCTGAGAAGTGTACGAATACGTCGCTACCATCTTCTCTTTCGATGAAACCAAAACCTTTTTCTGCATTAAACCATTTAACTGTACCGTTATTCATCCATGGCATG (double strand) [cspC]
- binding [4]: no binding

B1: O2 (dsDNA)
DNA 1: ATTCAACAAAAAAATACACGAAAAGCAAACTTTTATGTTGACTCAAGTA
DNA 2: TACTTGAGTCAACATAAAAGTTTGCTTTTCGTGTATTTTTTTGTTGAAT
- Kd ([8]; blunt): 7.83 ± 0.44 nM

B2: O1 (dsDNA)
DNA 1: GACTCAAGTACACGTATCGTGTATAGTAGGTTTA
DNA 2: AAACCTACTATACACGATACGTGTACTTGAGTCA
- Kd ([8]; 3' overhang 1 nt (both ends)): 3.13 ± 0.51 nM
- Kd [9]: 3.17 ± 0.75 nM
